According to US20220089698A1 (published 2022):

B1: 1.34.1-1 (antibody, human IgG1, kappa)
heavy: QVQLVQSGAEVKKPGASVRVSCKASGYNIRDYFIHWWRQAPGQGLQWVGWINPKTGQPNNPRQFQGRVTLTRHASWDFDTFSFYMDLKALRSDDTAVYFCARQRTDYWDFDVWGSGTQVTVSSASTKGPSVFPLAPSSKSTSGGTAALGCLVKDYFPEPVTVSWNSGALTSGVHTFPAVLQSSGLYSLSSVVTVPSSSLGTQTYICNVNHKPSNTKVDKKVEPKSCDKTHTCPPCPAPELLAGPDVFLFPPKPKDTLMISRTPEVTCVVVDVSHEDPEVKFNWYVDGVEVHNAKTKPREEQYNSTYRVVSVLTVLHQDWLNGKEYKCKVSNKALPLPEEKTISKAKGQPREPQVYTLPPSREEMTKNQVSLTCLVKGFYPSDIAVEWESNGQPENNYKTTPPVLDSDGSFFLYSKLTVDKSRWQQGNVFSCSVLHEALHSHYTQKSLSLSPGK
light: DIQMTQSPSSLSASVGDTVTITCQANGYLNWYQQRRGKAPKLLIYDGSKLERGVPSRFSGRRWGQEYNLTINNLQPEDIATYFCQVYEFVVPGTRLDLKRTVAAPSVFIFPPSDEQLKSGTASVVCLLNNFYPREAKVQWKVDNALQSGNSQESVTEQDSKDSTYSLSSTLTLSKADYEKHKVYACEVTHQGLSSPVTKSFNRGEC
B2: 1.33.31-1 (antibody, human IgG1, kappa)
heavy: QVQLVQSGAEVKKPGASVRVSCKASGYNIRDYFIHWWRQAPGQGLQWVGWINPKTGQPNNPRQFQGRVTLTRHASWDFDTFSFYMDLKALRSDDTATYFCARQRSDYWDFDVWGSGTQVTVSSASTKGPSVFPLAPSSKSTSGGTAALGCLVKDYFPEPVTVSWNSGALTSGVHTFPAVLQSSGLYSLSSVVTVPSSSLGTQTYICNVNHKPSNTKVDKKVEPKSCDKTHTCPPCPAPELLAGPDVFLFPPKPKDTLMISRTPEVTCVVVDVSHEDPEVKFNWYVDGVEVHNAKTKPREEQYNSTYRVVSVLTVLHQDWLNGKEYKCKVSNKALPLPEEKTISKAKGQPREPQVYTLPPSREEMTKNQVSLTCLVKGFYPSDIAVEWESNGQPENNYKTTPPVLDSDGSFFLYSKLTVDKSRWQQGNVFSCSVLHEALHSHYTQKSLSLSPGK
light: DIQMTQSPSSLSASVGDTVTITCQANGYLNWYQQRRGKAPKLLIYDGSKLERGVPSRFSGRRWGQEYTLTISSLQPEDIATYFCQVYEFVVPGTNLDLKRTVAAPSVFIFPPSDEQLKSGTASVVCLLNNFYPREAKVQWKVDNALQSGNSQESVTEQDSKDSTYSLSSTLTLSKADYEKHKVYACEVTHQGLSSPVTKSFNRGEC
B3: 1.1.31-1 (antibody, human IgG1, kappa)
heavy: QVQLLQSGAAVTKPGASVRVSCEASGYNIRDYFIHWWRQAPGQGLQWVGWINPKTGQPNNPRQFQGRVSLTRHASWDFDTFSFYMDLKALRSDDTAVYFCARQRSDYWDFDVWGSGTQVTVSSASTKGPSVFPLAPSSKSTSGGTAALGCLVKDYFPEPVTVSWNSGALTSGVHTFPAVLQSSGLYSLSSVVTVPSSSLGTQTYICNVNHKPSNTKVDKKVEPKSCDKTHTCPPCPAPELLAGPDVFLFPPKPKDTLMISRTPEVTCVVVDVSHEDPEVKFNWYVDGVEVHNAKTKPREEQYNSTYRVVSVLTVLHQDWLNGKEYKCKVSNKALPLPEEKTISKAKGQPREPQVYTLPPSREEMTKNQVSLTCLVKGFYPSDIAVEWESNGQPENNYKTTPPVLDSDGSFFLYSKLTVDKSRWQQGNVFSCSVLHEALHSHYTQKSLSLSPGK
light: DIQMTQSPSSLSASVGDTVTITCQANGYLNWYQQRRGKAPKLLIYDGSKLERGVPSRFSGRRWGQEYTLTISSLQPEDIATYFCQVYEFVVPGTNLDLKRTVAAPSVFIFPPSDEQLKSGTASVVCLLNNFYPREAKVQWKVDNALQSGNSQESVTEQDSKDSTYSLSSTLTLSKADYEKHKVYACEVTHQGLSSPVTKSFNRGEC
B4: 1.36.1-1 (antibody, human IgG1, kappa)
heavy: QVQLVQSGAEVKKPGASVRVSCKASGYNIRDYFMHWWRQAPGQGLQWVGWINPKTGQPNNPRQFQGRVTMTRHASWDFDTFSAYMDLSRLRSDDTATYFCARQRTDYWDFDVWGQGTMVTVSSASTKGPSVFPLAPSSKSTSGGTAALGCLVKDYFPEPVTVSWNSGALTSGVHTFPAVLQSSGLYSLSSVVTVPSSSLGTQTYICNVNHKPSNTKVDKKVEPKSCDKTHTCPPCPAPELLAGPDVFLFPPKPKDTLMISRTPEVTCVVVDVSHEDPEVKFNWYVDGVEVHNAKTKPREEQYNSTYRVVSVLTVLHQDWLNGKEYKCKVSNKALPLPEEKTISKAKGQPREPQVYTLPPSREEMTKNQVSLTCLVKGFYPSDIAVEWESNGQPENNYKTTPPVLDSDGSFFLYSKLTVDKSRWQQGNVFSCSVLHEALHSHYTQKSLSLSPGK
light: DIQMTQSPSSLSASVGDTVTITCQANGYLNWYQQRRGKAPKLLIYDGSKLERGVPSRFSGRRWGQEYNLTINNLQPEDIATYFCQVYEFVVPGTRLDLKRTVAAPSVFIFPPSDEQLKSGTASVVCLLNNFYPREAKVQWKVDNALQSGNSQESVTEQDSKDSTYSLSSTLTLSKADYEKHKVYACEVTHQGLSSPVTKSFNRGEC
B5: 1.35.31-1 (antibody, human IgG1, kappa)
heavy: QVQLVQSGAEVKKPGASVRVSCKASGYNIRDYFMHWWRQAPGQGLQWVGWINPKTGQPNNPRQFQGRVTMTRHASWDFDTFSFYMDLSRLRSDDTATYFCARQRTDYWDFDVWGQGTMVTVSSASTKGPSVFPLAPSSKSTSGGTAALGCLVKDYFPEPVTVSWNSGALTSGVHTFPAVLQSSGLYSLSSVVTVPSSSLGTQTYICNVNHKPSNTKVDKKVEPKSCDKTHTCPPCPAPELLAGPDVFLFPPKPKDTLMISRTPEVTCVVVDVSHEDPEVKFNWYVDGVEVHNAKTKPREEQYNSTYRVVSVLTVLHQDWLNGKEYKCKVSNKALPLPEEKTISKAKGQPREPQVYTLPPSREEMTKNQVSLTCLVKGFYPSDIAVEWESNGQPENNYKTTPPVLDSDGSFFLYSKLTVDKSRWQQGNVFSCSVLHEALHSHYTQKSLSLSPGK
light: DIQMTQSPSSLSASVGDTVTITCQANGYLNWYQQRRGKAPKLLIYDGSKLERGVPSRFSGRRWGQEYTLTISSLQPEDIATYFCQVYEFVVPGTNLDLKRTVAAPSVFIFPPSDEQLKSGTASVVCLLNNFYPREAKVQWKVDNALQSGNSQESVTEQDSKDSTYSLSSTLTLSKADYEKHKVYACEVTHQGLSSPVTKSFNRGEC
B6: 1.32.31-1 (antibody, human IgG1, kappa)
heavy: QVQLVQSGAEVTKPGASVRVSCEASGYNIRDYFIHWWRQAPGQGLQWVGWINPKTGQPNNPRQFQGRVSLTRHASWDFDTFSFYMDLKALRSDDTAVYFCARQRTDYWDFDVWGSGTQVTVSSASTKGPSVFPLAPSSKSTSGGTAALGCLVKDYFPEPVTVSWNSGALTSGVHTFPAVLQSSGLYSLSSVVTVPSSSLGTQTYICNVNHKPSNTKVDKKVEPKSCDKTHTCPPCPAPELLAGPDVFLFPPKPKDTLMISRTPEVTCVVVDVSHEDPEVKFNWYVDGVEVHNAKTKPREEQYNSTYRVVSVLTVLHQDWLNGKEYKCKVSNKALPLPEEKTISKAKGQPREPQVYTLPPSREEMTKNQVSLTCLVKGFYPSDIAVEWESNGQPENNYKTTPPVLDSDGSFFLYSKLTVDKSRWQQGNVFSCSVLHEALHSHYTQKSLSLSPGK
light: DIQMTQSPSSLSASVGDTVTITCQANGYLNWYQQRRGKAPKLLIYDGSKLERGVPSRFSGRRWGQEYTLTISSLQPEDIATYFCQVYEFVVPGTNLDLKRTVAAPSVFIFPPSDEQLKSGTASVVCLLNNFYPREAKVQWKVDNALQSGNSQESVTEQDSKDSTYSLSSTLTLSKADYEKHKVYACEVTHQGLSSPVTKSFNRGEC
B7: 1.34.31-1 (antibody, human IgG1, kappa)
heavy: QVQLVQSGAEVKKPGASVRVSCKASGYNIRDYFIHWWRQAPGQGLQWVGWINPKTGQPNNPRQFQGRVTLTRHASWDFDTFSFYMDLKALRSDDTAVYFCARQRTDYWDFDVWGSGTQVTVSSASTKGPSVFPLAPSSKSTSGGTAALGCLVKDYFPEPVTVSWNSGALTSGVHTFPAVLQSSGLYSLSSVVTVPSSSLGTQTYICNVNHKPSNTKVDKKVEPKSCDKTHTCPPCPAPELLAGPDVFLFPPKPKDTLMISRTPEVTCVVVDVSHEDPEVKFNWYVDGVEVHNAKTKPREEQYNSTYRVVSVLTVLHQDWLNGKEYKCKVSNKALPLPEEKTISKAKGQPREPQVYTLPPSREEMTKNQVSLTCLVKGFYPSDIAVEWESNGQPENNYKTTPPVLDSDGSFFLYSKLTVDKSRWQQGNVFSCSVLHEALHSHYTQKSLSLSPGK
light: DIQMTQSPSSLSASVGDTVTITCQANGYLNWYQQRRGKAPKLLIYDGSKLERGVPSRFSGRRWGQEYTLTISSLQPEDIATYFCQVYEFVVPGTNLDLKRTVAAPSVFIFPPSDEQLKSGTASVVCLLNNFYPREAKVQWKVDNALQSGNSQESVTEQDSKDSTYSLSSTLTLSKADYEKHKVYACEVTHQGLSSPVTKSFNRGEC
B8: 1.31.31-1 (antibody, human IgG1, kappa)
heavy: QVQLVQSGAEVTKPGASVRVSCEASGYNIRDYFIHWWRQAPGQGLQWVGWINPKTGQPNNPRQFQGRVSLTRHASWDFDTFSFYMDLKALRSDDTATYFCARQRSDYWDFDVWGSGTQVTVSSASTKGPSVFPLAPSSKSTSGGTAALGCLVKDYFPEPVTVSWNSGALTSGVHTFPAVLQSSGLYSLSSVVTVPSSSLGTQTYICNVNHKPSNTKVDKKVEPKSCDKTHTCPPCPAPELLAGPDVFLFPPKPKDTLMISRTPEVTCVVVDVSHEDPEVKFNWYVDGVEVHNAKTKPREEQYNSTYRVVSVLTVLHQDWLNGKEYKCKVSNKALPLPEEKTISKAKGQPREPQVYTLPPSREEMTKNQVSLTCLVKGFYPSDIAVEWESNGQPENNYKTTPPVLDSDGSFFLYSKLTVDKSRWQQGNVFSCSVLHEALHSHYTQKSLSLSPGK
light: DIQMTQSPSSLSASVGDTVTITCQANGYLNWYQQRRGKAPKLLIYDGSKLERGVPSRFSGRRWGQEYTLTISSLQPEDIATYFCQVYEFVVPGTNLDLKRTVAAPSVFIFPPSDEQLKSGTASVVCLLNNFYPREAKVQWKVDNALQSGNSQESVTEQDSKDSTYSLSSTLTLSKADYEKHKVYACEVTHQGLSSPVTKSFNRGEC
B9: 1.35.1-1 (antibody, human IgG1, kappa)
heavy: QVQLVQSGAEVKKPGASVRVSCKASGYNIRDYFMHWWRQAPGQGLQWVGWINPKTGQPNNPRQFQGRVTMTRHASWDFDTFSFYMDLSRLRSDDTATYFCARQRTDYWDFDVWGQGTMVTVSSASTKGPSVFPLAPSSKSTSGGTAALGCLVKDYFPEPVTVSWNSGALTSGVHTFPAVLQSSGLYSLSSVVTVPSSSLGTQTYICNVNHKPSNTKVDKKVEPKSCDKTHTCPPCPAPELLAGPDVFLFPPKPKDTLMISRTPEVTCVVVDVSHEDPEVKFNWYVDGVEVHNAKTKPREEQYNSTYRVVSVLTVLHQDWLNGKEYKCKVSNKALPLPEEKTISKAKGQPREPQVYTLPPSREEMTKNQVSLTCLVKGFYPSDIAVEWESNGQPENNYKTTPPVLDSDGSFFLYSKLTVDKSRWQQGNVFSCSVLHEALHSHYTQKSLSLSPGK
light: DIQMTQSPSSLSASVGDTVTITCQANGYLNWYQQRRGKAPKLLIYDGSKLERGVPSRFSGRRWGQEYNLTINNLQPEDIATYFCQVYEFVVPGTRLDLKRTVAAPSVFIFPPSDEQLKSGTASVVCLLNNFYPREAKVQWKVDNALQSGNSQESVTEQDSKDSTYSLSSTLTLSKADYEKHKVYACEVTHQGLSSPVTKSFNRGEC

Key:
HIV gp120 Bal = HIV gp120 Bal (HIV); test: single-point ELISA; note: test concentration or dose not given here
HIV gp120 CAAN = HIV gp120 CAAN (HIV); test: single-point ELISA; note: test concentration or dose not given here

| Binder | ELISA (A450) (HIV gp120 Bal) | ELISA (A450) (HIV gp120 CAAN) |
| --- | --- | --- |
| B1 | 0.83 | 0.9 |
| B2 | 0.92 | 1.18 |
| B3 | 0.87 | 0.96 |
| B4 | 1.13 | 0.75 |
| B5 | 1.05 | 0.99 |
| B6 | 0.95 | 0.9 |
| B7 | 0.91 | 0.92 |
| B8 | 0.98 | 1.02 |
| B9 | 0.84 | 0.87 |
